{"source": "the supplement of paper PMC9112550", "about": "“Optimization of the antimicrobial peptide Bac7 by deep mutational scanning” (BMC Biology, 2022);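 note: peptides expressed intracellularly from a pBAD plasmid library in pooled LB shake-flask culture, induced with 0.3% L-arabinose, DNA abundance read by NGS, three biological replicates, DESeq2 with apeglm shrinkage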", "data": [{"test_system": "Escherichia coli TOP10", "experiment": "shrunken log2 fold change of peptide-encoding DNA abundance (4.5 h post-induction vs induction); higher = less antimicrobial activity (less host growth inhibition)", "conditions": "time post-induction: 4.5 h; library: site-saturation at positions 5, 18, 19, 20", "values": [{"sequence": "RRIRGRPPRLPRPRPRPHYFPRP", "shrunken log2 fold change": 0.313}, {"sequence": "RRIRKRPPRLPRPRPRPLIWPRP", "shrunken log2 fold change": 0.761}, {"sequence": "RRIRLRPPRLPRPRPRPKVCPRP", "shrunken log2 fold change": 0.0264}, {"sequence": "RRIRSRPPRLPRPRPRPCKWPRP", "shrunken log2 fold change": -0.053}, {"sequence": "RRIRKRPPRLPRPRPRPIKFPRP", "shrunken log2 fold change": -0.131}, {"sequence": "RRIRHRPPRLPRPRPRPQGPPRP", "shrunken log2 fold change": -0.235}, {"sequence": "RRIRPRPPRLPRPRPRPQIHPRP", "shrunken log2 fold change": -0.536}, {"sequence": "RRIRMRPPRLPRPRPRPLVVPRP", "shrunken log2 fold change": 0.0644}, {"sequence": "RRIRIRPPRLPRPRPRPQNGPRP", "shrunken log2 fold change": -0.294}, {"sequence": "RRIRHRPPRLPRPRPRPSFTPRP", "shrunken log2 fold change": -0.632}, {"sequence": "RRIRIRPPRLPRPRPRPQHHPRP", "shrunken log2 fold change": -0.875}, {"sequence": "RRIRMRPPRLPRPRPRPAYMPRP", "shrunken log2 fold change": -0.0929}, {"sequence": "RRIRFRPPRLPRPRPRPMKPPRP", "shrunken log2 fold change": -0.0229}, {"sequence": "RRIRERPPRLPRPRPRPISAPRP", "shrunken log2 fold change": -0.214}, {"sequence": "RRIRTRPPRLPRPRPRPPGDPRP", "shrunken log2 fold change": 0.189}, {"sequence": "RRIRQRPPRLPRPRPRPWTAPRP", "shrunken log2 fold change": -0.264}, {"sequence": "RRIRQRPPRLPRPRPRPWGNPRP", "shrunken log2 fold change": 0.0303}, {"sequence": "RRIRVRPPRLPRPRPRPKYEPRP", "shrunken log2 fold change": 0.0383}, {"sequence": "RRIRYRPPRLPRPRPRPNTIPRP", "shrunken log2 fold change": -1.05}, {"sequence": "RRIRDRPPRLPRPRPRPIAQPRP", "shrunken log2 fold change": -0.0679}, {"sequence": "RRIRWRPPRLPRPRPRPPFKPRP", "shrunken log2 fold change": 0.331}, {"sequence": "RRIRHRPPRLPRPRPRPSTYPRP", "shrunken log2 fold change": -0.202}, {"sequence": "RRIRARPPRLPRPRPRPWIEPRP", "shrunken log2 fold change": -0.105}, {"sequence": "RRIRWRPPRLPRPRPRPQVGPRP", "shrunken log2 fold change": 0.0734}, {"sequence": "RRIRVRPPRLPRPRPRPRTCPRP", "shrunken log2 fold change": -0.143}, {"sequence": "RRIRKRPPRLPRPRPRPAQIPRP", "shrunken log2 fold change": 0.342}, {"sequence": "RRIRLRPPRLPRPRPRPRCGPRP", "shrunken log2 fold change": 0.0294}, {"sequence": "RRIRMRPPRLPRPRPRPKYQPRP", "shrunken log2 fold change": 0.0592}, {"sequence": "RRIRARPPRLPRPRPRPLFPPRP", "shrunken log2 fold change": 0.148}, {"sequence": "RRIRCRPPRLPRPRPRPGGKPRP", "shrunken log2 fold change": -0.0361}, {"sequence": "RRIRHRPPRLPRPRPRPSMMPRP", "shrunken log2 fold change": -0.407}, {"sequence": "RRIRCRPPRLPRPRPRPNADPRP", "shrunken log2 fold change": 0.342}, {"sequence": "RRIRPRPPRLPRPRPRPGELPRP", "shrunken log2 fold change": 0.192}, {"sequence": "RRIRARPPRLPRPRPRPPVAPRP", "shrunken log2 fold change": 0.77}, {"sequence": "RRIRWRPPRLPRPRPRPDASPRP", "shrunken log2 fold change": 0.364}, {"sequence": "RRIRKRPPRLPRPRPRPDSVPRP", "shrunken log2 fold change": 0.0996}, {"sequence": "RRIRPRPPRLPRPRPRPKLHPRP", "shrunken log2 fold change": -0.00244}, {"sequence": "RRIRVRPPRLPRPRPRPFKNPRP", "shrunken log2 fold change": -0.055}, {"sequence": "RRIRNRPPRLPRPRPRPWSRPRP", "shrunken log2 fold change": 0.14}, {"sequence": "RRIRQRPPRLPRPRPRPHRNPRP", "shrunken log2 fold change": 0.116}, {"sequence": "RRIRDRPPRLPRPRPRPVENPRP", "shrunken log2 fold change": -0.127}, {"sequence": "RRIRGRPPRLPRPRPRPMPDPRP", "shrunken log2 fold change": 0.13}, {"sequence": "RRIRPRPPRLPRPRPRPWCLPRP", "shrunken log2 fold change": -0.514}, {"sequence": "RRIRVRPPRLPRPRPRPQNCPRP", "shrunken log2 fold change": -0.205}, {"sequence": "RRIRFRPPRLPRPRPRPMFCPRP", "shrunken log2 fold change": -0.111}, {"sequence": "RRIRARPPRLPRPRPRPPWDPRP", "shrunken log2 fold change": 0.72}, {"sequence": "RRIRGRPPRLPRPRPRPHFKPRP", "shrunken log2 fold change": 0.178}, {"sequence": "RRIRERPPRLPRPRPRPHYCPRP", "shrunken log2 fold change": -0.0425}, {"sequence": "RRIRTRPPRLPRPRPRPYISPRP", "shrunken log2 fold change": -0.382}, {"sequence": "RRIRNRPPRLPRPRPRPVQVPRP", "shrunken log2 fold change": -0.317}, {"sequence": "RRIRGRPPRLPRPRPRPNQLPRP", "shrunken log2 fold change": 0.0782}, {"sequence": "RRIRMRPPRLPRPRPRPTKEPRP", "shrunken log2 fold change": -0.0201}, {"sequence": "RRIRFRPPRLPRPRPRPCAEPRP", "shrunken log2 fold change": 0.111}, {"sequence": "RRIRTRPPRLPRPRPRPNLTPRP", "shrunken log2 fold change": -0.00355}, {"sequence": "RRIRMRPPRLPRPRPRPIITPRP", "shrunken log2 fold change": -0.512}, {"sequence": "RRIRNRPPRLPRPRPRPFMVPRP", "shrunken log2 fold change": -0.646}, {"sequence": "RRIRGRPPRLPRPRPRPTTAPRP", "shrunken log2 fold change": 1.31}, {"sequence": "RRIRTRPPRLPRPRPRPQEYPRP", "shrunken log2 fold change": -0.0331}, {"sequence": "RRIRDRPPRLPRPRPRPPTMPRP", "shrunken log2 fold change": -0.061}, {"sequence": "RRIRSRPPRLPRPRPRPRQWPRP", "shrunken log2 fold change": 0.69}, {"sequence": "RRIRPRPPRLPRPRPRPHCVPRP", "shrunken log2 fold change": -0.0495}, {"sequence": "RRIRGRPPRLPRPRPRPEHPPRP", "shrunken log2 fold change": 0.281}, {"sequence": "RRIRCRPPRLPRPRPRPSTAPRP", "shrunken log2 fold change": 0.0354}, {"sequence": "RRIRKRPPRLPRPRPRPDYWPRP", "shrunken log2 fold change": 0.0865}, {"sequence": "RRIRDRPPRLPRPRPRPLCGPRP", "shrunken log2 fold change": 0.32}, {"sequence": "RRIRLRPPRLPRPRPRPSQLPRP", "shrunken log2 fold change": -0.282}, {"sequence": "RRIRVRPPRLPRPRPRPDCDPRP", "shrunken log2 fold change": -0.102}, {"sequence": "RRIRERPPRLPRPRPRPAYDPRP", "shrunken log2 fold change": -0.394}, {"sequence": "RRIRMRPPRLPRPRPRPKSLPRP", "shrunken log2 fold change": 0.171}, {"sequence": "RRIRARPPRLPRPRPRPVYPPRP", "shrunken log2 fold change": 0.0412}, {"sequence": "RRIRFRPPRLPRPRPRPCWDPRP", "shrunken log2 fold change": -0.0535}, {"sequence": "RRIRTRPPRLPRPRPRPWHMPRP", "shrunken log2 fold change": 0.0039}, {"sequence": "RRIRMRPPRLPRPRPRPIFGPRP", "shrunken log2 fold change": 0.0873}, {"sequence": "RRIRCRPPRLPRPRPRPRMDPRP", "shrunken log2 fold change": -0.0539}, {"sequence": "RRIRARPPRLPRPRPRPHQEPRP", "shrunken log2 fold change": 0.568}]}]}
